In patent publication US20110098217A1 (INDIANA UNIVERSITY RESEARCH AND TECHNOLOGY, published 2011):
Read-outs that look alike come from different tables or passages of the source. Bridge positions count the residues as written; N and C are the ends. Square brackets hold non-standard residues; d marks the D form. Primed or numbered codes have the meaning given here. Ends that are not written are not given here. PEG 20 kDa″ = 20 kDa polyethylene glycol (PEG); Abu(4-SO3H) = N[C@@H](CCS(=O)(=O)O)C(=O)O; PEG 20 kDa = 20 kDa polyethylene glycol; PhLac = O=C(O)[C@@H](O)Cc1ccccc1

Legend:
human glucagon receptor [1] = target: T1, human glucagon receptor (human, UniProt P47871 26-477); assay: cell-based or functional assay
T1 sequence (P47871 26-477): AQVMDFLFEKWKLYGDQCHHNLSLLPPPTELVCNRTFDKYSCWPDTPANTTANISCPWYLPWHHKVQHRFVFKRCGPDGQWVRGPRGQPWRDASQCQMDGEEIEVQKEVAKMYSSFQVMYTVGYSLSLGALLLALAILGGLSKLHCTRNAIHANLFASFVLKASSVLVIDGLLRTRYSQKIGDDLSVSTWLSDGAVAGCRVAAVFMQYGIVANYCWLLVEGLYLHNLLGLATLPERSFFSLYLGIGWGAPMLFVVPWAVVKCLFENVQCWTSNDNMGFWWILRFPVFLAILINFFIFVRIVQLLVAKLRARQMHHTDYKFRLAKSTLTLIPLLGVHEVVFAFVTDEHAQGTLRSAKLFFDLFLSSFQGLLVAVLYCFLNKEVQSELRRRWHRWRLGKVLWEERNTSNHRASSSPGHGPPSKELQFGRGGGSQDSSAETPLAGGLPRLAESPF

human GLP-1 receptor [2] = target: T2, human GLP-1 receptor (human, UniProt P43220 24-463); assay: cell-based or functional assay
human glucagon receptor [3] = target: T1, human glucagon receptor; assay: cell-based or functional assay; remark: listed apart in the source
human GLP-1 receptor [4] = target: T2, human GLP-1 receptor; assay: cell-based or functional assay; remark: listed apart in the source
human glucagon receptor [5] = target: T1, human glucagon receptor; assay: cell-based or functional assay; remark: listed apart in the source
human glucagon receptor [6] = target: T1, human glucagon receptor; assay: SPA competition vs 125I-glucagon, receptor membranes

B1: [PLA6, K12E16(lactam), GLP(23-32)]G(6-29) (peptide)
peptide: [PhLac]TSDYSKYLDEQAAKDFIAWLMDT-NH2
modifications: lactam 7-11; N-terminus assumed
SMILES: CC[C@H](C)[C@H](NC(=O)[C@H](Cc1ccccc1)NC(=O)[C@H](CC(=O)O)NC(=O)[C@H](CCCCN)NC(=O)[C@H](C)NC(=O)[C@H](C)NC(=O)[C@H](CCC(N)=O)NC(=O)[C@@H]1CCC(=O)NCCCC[C@H](NC(=O)[C@H](CO)NC(=O)[C@H](Cc2ccc(O)cc2)NC(=O)[C@H](CC(=O)O)NC(=O)[C@H](CO)NC(=O)[C@@H](NC(=O)[C@@H](O)Cc2ccccc2)[C@@H](C)O)C(=O)N[C@@H](Cc2ccc(O)cc2)C(=O)N[C@@H](CC(C)C)C(=O)N[C@@H](CC(=O)O)C(=O)N1)C(=O)N[C@@H](C)C(=O)N[C@@H](Cc1c[nH]c2ccccc12)C(=O)N[C@@H](CC(C)C)C(=O)N[C@@H](CCSC)C(=O)N[C@@H](CC(=O)O)C(=O)N[C@H](C(N)=O)[C@@H](C)O
Glucagon antagonism IC50 (inhibit 0.2-0.8 nM glucagon) (human glucagon receptor [1]): 169 nM

B2: [PLA6, E16K20(lactam), GLP(23-32)]G(6-29) (peptide)
peptide: [PhLac]TSDYSKYLDEQAAKEFIAWLMDT-NH2
modifications: lactam 11-15; N-terminus assumed
SMILES: CC[C@H](C)[C@H](NC(=O)[C@H](Cc1ccccc1)NC(=O)[C@H](CCC(=O)O)NC(=O)[C@@H]1CCCCNC(=O)CC[C@H](NC(=O)[C@H](CC(=O)O)NC(=O)[C@H](CC(C)C)NC(=O)[C@H](Cc2ccc(O)cc2)NC(=O)[C@H](CCCCN)NC(=O)[C@H](CO)NC(=O)[C@H](Cc2ccc(O)cc2)NC(=O)[C@H](CC(=O)O)NC(=O)[C@H](CO)NC(=O)[C@@H](NC(=O)[C@@H](O)Cc2ccccc2)[C@@H](C)O)C(=O)N[C@@H](CCC(N)=O)C(=O)N[C@@H](C)C(=O)N[C@@H](C)C(=O)N1)C(=O)N[C@@H](C)C(=O)N[C@@H](Cc1c[nH]c2ccccc12)C(=O)N[C@@H](CC(C)C)C(=O)N[C@@H](CCSC)C(=O)N[C@@H](CC(=O)O)C(=O)N[C@H](C(N)=O)[C@@H](C)O
GLP-1 agonism EC50 (human GLP-1 receptor [2]): 51.2 nM

B3: [PLA6, E16, GLP(23-32)]G(6-29) (peptide)
peptide: [PhLac]TSDYSKYLDEQAAKEFIAWLMNT-NH2
modifications: N-terminus assumed
SMILES: CC[C@H](C)[C@H](NC(=O)[C@H](Cc1ccccc1)NC(=O)[C@H](CCC(=O)O)NC(=O)[C@H](CCCCN)NC(=O)[C@H](C)NC(=O)[C@H](C)NC(=O)[C@H](CCC(N)=O)NC(=O)[C@H](CCC(=O)O)NC(=O)[C@H](CC(=O)O)NC(=O)[C@H](CC(C)C)NC(=O)[C@H](Cc1ccc(O)cc1)NC(=O)[C@H](CCCCN)NC(=O)[C@H](CO)NC(=O)[C@H](Cc1ccc(O)cc1)NC(=O)[C@H](CC(=O)O)NC(=O)[C@H](CO)NC(=O)[C@@H](NC(=O)[C@@H](O)Cc1ccccc1)[C@@H](C)O)C(=O)N[C@@H](C)C(=O)N[C@@H](Cc1c[nH]c2ccccc12)C(=O)N[C@@H](CC(C)C)C(=O)N[C@@H](CCSC)C(=O)N[C@@H](CC(N)=O)C(=O)N[C@H](C(N)=O)[C@@H](C)O
Glucagon antagonism IC50 (inhibit 0.2-0.8 nM glucagon) (human glucagon receptor [1]): 64.5 nM
GLP-1 agonism EC50 (human GLP-1 receptor [2]): 85.6 nM

B4: [A2E3, E9, E16K20(Lactam), GLP(23-32)]G(2-29) (peptide)
peptide: AEGTFTSEYSKYLDEQAAKEFIAWLMDT-NH2
modifications: lactam 15-19; N-terminus assumed
SMILES: CC[C@H](C)[C@H](NC(=O)[C@H](Cc1ccccc1)NC(=O)[C@H](CCC(=O)O)NC(=O)[C@@H]1CCCCNC(=O)CC[C@H](NC(=O)[C@H](CC(=O)O)NC(=O)[C@H](CC(C)C)NC(=O)[C@H](Cc2ccc(O)cc2)NC(=O)[C@H](CCCCN)NC(=O)[C@H](CO)NC(=O)[C@H](Cc2ccc(O)cc2)NC(=O)[C@H](CCC(=O)O)NC(=O)[C@H](CO)NC(=O)[C@@H](NC(=O)[C@H](Cc2ccccc2)NC(=O)[C@@H](NC(=O)CNC(=O)[C@H](CCC(=O)O)NC(=O)[C@H](C)N)[C@@H](C)O)[C@@H](C)O)C(=O)N[C@@H](CCC(N)=O)C(=O)N[C@@H](C)C(=O)N[C@@H](C)C(=O)N1)C(=O)N[C@@H](C)C(=O)N[C@@H](Cc1c[nH]c2ccccc12)C(=O)N[C@@H](CC(C)C)C(=O)N[C@@H](CCSC)C(=O)N[C@@H](CC(=O)O)C(=O)N[C@H](C(N)=O)[C@@H](C)O
Glucagon antagonism IC50 (inhibit 0.2-0.8 nM glucagon) (human glucagon receptor [1]): 423 nM
GLP-1 agonism EC50 (human GLP-1 receptor [2]): 9.8 nM

B5: [H1A2E3, E9, E16K20(Lactam), GLP(23-32)]G(1-29) (peptide)
peptide: HAEGTFTSEYSKYLDEQAAKEFIAWLMDT-NH2
modifications: lactam 16-20; N-terminus assumed
SMILES: CC[C@H](C)[C@H](NC(=O)[C@H](Cc1ccccc1)NC(=O)[C@H](CCC(=O)O)NC(=O)[C@@H]1CCCCNC(=O)CC[C@H](NC(=O)[C@H](CC(=O)O)NC(=O)[C@H](CC(C)C)NC(=O)[C@H](Cc2ccc(O)cc2)NC(=O)[C@H](CCCCN)NC(=O)[C@H](CO)NC(=O)[C@H](Cc2ccc(O)cc2)NC(=O)[C@H](CCC(=O)O)NC(=O)[C@H](CO)NC(=O)[C@@H](NC(=O)[C@H](Cc2ccccc2)NC(=O)[C@@H](NC(=O)CNC(=O)[C@H](CCC(=O)O)NC(=O)[C@H](C)NC(=O)[C@@H](N)Cc2c[nH]cn2)[C@@H](C)O)[C@@H](C)O)C(=O)N[C@@H](CCC(N)=O)C(=O)N[C@@H](C)C(=O)N[C@@H](C)C(=O)N1)C(=O)N[C@@H](C)C(=O)N[C@@H](Cc1c[nH]c2ccccc12)C(=O)N[C@@H](CC(C)C)C(=O)N[C@@H](CCSC)C(=O)N[C@@H](CC(=O)O)C(=O)N[C@H](C(N)=O)[C@@H](C)O
Glucagon antagonism IC50 (inhibit 0.2-0.8 nM glucagon) (human glucagon receptor [1]): 2150 nM
GLP-1 agonism EC50 (human GLP-1 receptor [2]): 0.017 nM

[PhLac]TSDYSKYLDERRAQDFVC(PEG 20 kDa)WLMDT-NH2 (lactam 7-11) [[PLA6, K12E16(lactam), C24(20 kDa), D28]G(6-29)]
Glucagon antagonism IC50 (inhibit 0.2-0.8 nM glucagon) (human glucagon receptor [3]): 628 nM
GLP-1 agonism EC50 (human GLP-1 receptor [4]): 550 to 753 nM

[PhLac]TSDYSKYLDERRAQDFVQWLMDTGPSSGAPPPSC(PEG 20 kDa)-NH2 (lactam 7-11) [[PLA6, K12E16(Lactam), D28,CEX-C40(20 kDa)]G(6-40)]
GLP-1 agonism EC50 (human GLP-1 receptor [4]): 657 nM

[PhLac]TSEYSKYLDERRAKDFVC(PEG 20 kDa″)WLMNT-NH2 (lactam 11-15) [[PLA6, E9,E16K20(Lactam), C24(20 kDa)]G(6-29)]
GLP-1 agonism EC50 (human GLP-1 receptor [4]): 825 nM

[PhLac]TSDYSKYLDERRAKDFVQWLMDTGPSSGAPPPSC(PEG 20 kDa″)-NH2 (lactam 11-15) [[PLA6, E16K20(Lactam), D28,CEX-C40(20 kDa)]G(6-40)]
Glucagon antagonism IC50 (inhibit 0.2-0.8 nM glucagon) (human glucagon receptor [3]): 350 to 500 nM
GLP-1 agonism EC50 (human GLP-1 receptor [4]): 75 to 100 nM

B6: [desHis^1, Leu^4, hCys^9(SO3-), Phe^25, Leu^27] Glucagon-NH2 (peptide)
peptide: SQLTFTS[Abu(4-SO3H)]YSKYLDSRRAQDFVQFLLNT-NH2
modifications: N-terminus assumed
SMILES: CC(C)C[C@H](NC(=O)[C@H](Cc1ccc(O)cc1)NC(=O)[C@H](CCCCN)NC(=O)[C@H](CO)NC(=O)[C@H](Cc1ccc(O)cc1)NC(=O)[C@H](CCS(=O)(=O)O)NC(=O)[C@H](CO)NC(=O)[C@@H](NC(=O)[C@H](Cc1ccccc1)NC(=O)[C@@H](NC(=O)[C@H](CC(C)C)NC(=O)[C@H](CCC(N)=O)NC(=O)[C@@H](N)CO)[C@@H](C)O)[C@@H](C)O)C(=O)N[C@@H](CC(=O)O)C(=O)N[C@@H](CO)C(=O)N[C@@H](CCCNC(=N)N)C(=O)N[C@@H](CCCNC(=N)N)C(=O)N[C@@H](C)C(=O)N[C@@H](CCC(N)=O)C(=O)N[C@@H](CC(=O)O)C(=O)N[C@@H](Cc1ccccc1)C(=O)N[C@H](C(=O)N[C@@H](CCC(N)=O)C(=O)N[C@@H](Cc1ccccc1)C(=O)N[C@@H](CC(C)C)C(=O)N[C@@H](CC(C)C)C(=O)N[C@@H](CC(N)=O)C(=O)N[C@H](C(N)=O)[C@@H](C)O)C(C)C
cAMP Induction EC50 (human glucagon receptor [5]): 1610 nM
cAMP Inhibition IC50 (human glucagon receptor [5]): 4460 nM

[PhLac]TC(PEG 1.2 kDa)EYSKYLDSRRAQDFVQWLMNT-NH2 [[PLA^6, C^8(1.2kDaPEG), E^9]Glucagon(aa6-29)-NH2]
IC50 (human glucagon receptor [6]): 220 nM
